Experimental data as given in the supplement of paper PMC10567573.

B1: TMEM192 (parent)
chain: ILGKVILWILHLLLECYIQYHHSK
B2: C9orf9 (parent)
chain: TKHKCRQLTKASLKPRGCSKPPWR

Variants of: B1
Assay: protein stability index of a GFP-peptide fusion (GPS, HEK-293T) (PSI 1-6); higher = more stable
Details: c terminus: a fixed tail appended
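Note: lentivirally expressed fusions sorted by FACS into six bins by GFP to DsRed ratio, PSI derived from sequencing read proportions per bin multiplied by bin number.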

| Variant | protein stability index |
| --- | --- |
| G3F | 2.9 |
| G3Y | 3.82 |
| G3E | 2.62 |
| G3M | 2.76 |
| G3W | 2.58 |
| G3K | 3.66 |
| G3L | 2.76 |
| G3I | 2.58 |
| G3S | 1.95 |
| G3Q | 3.27 |
| G3P | 3.89 |
| G3T | 3.14 |
| G3N | 2.87 |
| G3H | 2.67 |
| G3D | 3.06 |
| G3V | 2.32 |
| G3R | 3.69 |
| G3C | 3.41 |
| I6V | 3.41 |
| I6A | 1.4 |
| I6N | 2.86 |
| I6R | 2.74 |
| I6P | 2.73 |
| I6Q | 3.64 |
| I6M | 2.24 |
| I6C | 2.94 |

| Variant | protein stability index |
| --- | --- |
| I6L | 3.74 |
| I6H | 3.07 |
| I6S | 3.76 |
| I6K | 3.39 |
| I6D | 3.23 |
| I6T | 3.07 |
| I6E | 2.55 |
| K4I | 2.81 |
| K4L | 3.75 |
| K4H | 4.67 |
| K4V | 2.92 |
| K4N | 2.98 |
| K4S | 2.9 |
| K4D | 3.04 |
| K4G | 3.12 |
| K4A | 2.97 |
| K4Y | 2.87 |
| K4M | 3.11 |
| K4T | 2.8 |
| K4F | 3.11 |
| K4E | 2.46 |
| K4P | 1.73 |
| K4R | 1.83 |
| K4W | 2.93 |
| L2H | 1.91 |
| L2F | 2.86 |

| Variant | protein stability index |
| --- | --- |
| L2D | 2.04 |
| L2K | 3.23 |
| L2Y | 2.77 |
| L2E | 2.32 |
| L2Q | 2.41 |
| L2V | 3.54 |
| L2A | 2.41 |
| L2R | 2.75 |
| L2N | 2.93 |
| L2W | 2.18 |
| L2T | 3.29 |
| L2G | 3.77 |
| L2S | 2.82 |
| L2P | 2.74 |
| I1E | 3.42 |
| I1S | 3.41 |
| I1P | 2.56 |
| I1G | 3.43 |
| I1H | 2.88 |
| I1R | 2.92 |
| I1W | 2.22 |
| I1K | 1.79 |
| I1Q | 2.5 |
| I1N | 3.45 |
| I1C | 2.82 |
| I1T | 3.49 |

| Variant | protein stability index |
| --- | --- |
| I1L | 3.4 |
| I1D | 2.93 |
| I1F | 2.81 |
| I1M | 3.36 |
| I1V | 3.68 |
| V5K | 2.08 |
| V5D | 3.49 |
| V5Y | 4.62 |
| V5T | 2.49 |
| V5W | 3.91 |
| V5G | 3.88 |
| V5H | 2.2 |
| V5P | 1.85 |
| V5S | 3.18 |
| V5E | 3.81 |
| V5F | 2.7 |
| V5R | 2.43 |
| V5A | 2.85 |
| V5I | 3.3 |
| V5M | 3.23 |
| V5N | 2.55 |
| V5Q | 2.86 |
| V5C | 2.73 |

Variants of: B2
Assay: as above
Details: c terminus: a fixed tail appended

| Variant | protein stability index |
| --- | --- |
| C18I | 2.2 |
| C18Y | 2.18 |
| C5M | 1.84 |
| T9V | 2.92 |
| T9N | 3.87 |
| T9Q | 3.14 |
| T9I | 2.22 |
| K20W | 1.94 |
| K20Y | 3.56 |
| K20C | 2.23 |
| K20D | 1.92 |
| K20V | 2.2 |
| P22M | 2.76 |
| P22Q | 2.99 |
| P22R | 2.51 |
| P22N | 2.32 |
| A11P | 3.89 |
| A11S | 2.78 |
| T1S | 2.96 |
| T1N | 3.18 |
| T1Q | 2.46 |
| G17C | 1.83 |

| Variant | protein stability index |
| --- | --- |
| G17L | 2.14 |
| G17S | 2.82 |
| G17P | 2.08 |
| P21M | 2.64 |
| L13F | 2.63 |
| L13M | 2.8 |
| R6W | 2.46 |
| R6K | 2.76 |
| R6H | 3.25 |
| R6D | 3.03 |
| R6N | 2.78 |
| Q7T | 2.06 |
| Q7C | 2.17 |
| Q7M | 2.14 |
| H3D | 3.12 |
| H3C | 1.44 |
| H3F | 2.27 |
| H3Y | 3.08 |
| H3R | 3.11 |
| H3P | 3.03 |
| S19F | 2.33 |
| S19W | 2.14 |

| Variant | protein stability index |
| --- | --- |
| S19D | 2.77 |
| S19M | 2.94 |
| K10R | 3.59 |
| R16K | 2 |
| R16D | 3.28 |
| R16M | 2.45 |
| R16C | 2.75 |
| S12Q | 3.25 |
| L8S | 3.12 |
| L8T | 3.22 |
| W23V | 3.28 |
| W23E | 4.29 |
| W23T | 3.93 |
| W23F | 2.67 |
| K14L | 2.75 |
| K14P | 2.98 |
| K14D | 2.2 |
| K14I | 2.2 |
| K14T | 3.17 |
| P15I | 2.66 |
| P15S | 3 |
| R24C | 1.99 |
